Data: publication PMC7380959 (Science Advances, 2020)

Target: H77 E1E2 (full-length E1E2, wild type) (Hepatitis C virus genotype 1a, isolate …)
Assay: ELISA

binding result: binds
B1: 212.1.1 IgG (antibody, V domains shown)
VH: QVQLVQSGAEVKKPGSSVKVSCKASGGTLSSYGISWVRQAPGQGLEWLGGSIPILGTSVYAQKFQGRVTMTADESTSTAHMELSSLRFDDTAIYYCAGVREGMAAISGKNAFDIWGQGTMVTVSS
VL: DIQMTQSPSSLSASVGDRVTITCRASQGISNYLAWYQQKPGKVPKLLIYAASTLQSGVPSRFSGSGYGTEFTLTISSLQPEDVATYYCQQHDNLPLTFGGGTKVEIK
